Here are results for four molecules from publication PMC10805704, “VCIP135 associates with both the N- and C-terminal regions of p97 ATPase” (The Journal of Biological Chemistry, 2023).

The experiment deals with T1, endogenous p97 purified from rat liver cytosol, biotinylated (rat (endogenous in rat liver), UniProt P46462 1-806, biotinylated using EZ-Link Sulfo-NHS-LC-biotin (sites not given)).
T1 construct: p97 ATPase (VCP), endogenous protein purified from rat liver cytosol; Held on streptavidin beads through the biotin; also called p97ATPase; VCP; source: purified from rat liver cytosol
Nature of the experiment: pull-down; endogenous rat liver p97, biotinylated, immobilised on streptavidin beads; His-tagged VCIP135 or its fragments or mutants in solution; 1 mM AMP-PNP (Figs 1A, 5C, 5D: the indicated nucleotide, 1 mM); 20 mM HEPES, 100 mM KCl, 1 mM MgCl2, 1 mM DTT, 0.5% CHAPS, 10% glycerol, pH 7.4; Western blot with antibodies to p97 and His-tag. The settings on record: both partners purified. (In western blotting, separated proteins are transferred to a membrane and probed.)

T1 sequence (P46462 whole entry): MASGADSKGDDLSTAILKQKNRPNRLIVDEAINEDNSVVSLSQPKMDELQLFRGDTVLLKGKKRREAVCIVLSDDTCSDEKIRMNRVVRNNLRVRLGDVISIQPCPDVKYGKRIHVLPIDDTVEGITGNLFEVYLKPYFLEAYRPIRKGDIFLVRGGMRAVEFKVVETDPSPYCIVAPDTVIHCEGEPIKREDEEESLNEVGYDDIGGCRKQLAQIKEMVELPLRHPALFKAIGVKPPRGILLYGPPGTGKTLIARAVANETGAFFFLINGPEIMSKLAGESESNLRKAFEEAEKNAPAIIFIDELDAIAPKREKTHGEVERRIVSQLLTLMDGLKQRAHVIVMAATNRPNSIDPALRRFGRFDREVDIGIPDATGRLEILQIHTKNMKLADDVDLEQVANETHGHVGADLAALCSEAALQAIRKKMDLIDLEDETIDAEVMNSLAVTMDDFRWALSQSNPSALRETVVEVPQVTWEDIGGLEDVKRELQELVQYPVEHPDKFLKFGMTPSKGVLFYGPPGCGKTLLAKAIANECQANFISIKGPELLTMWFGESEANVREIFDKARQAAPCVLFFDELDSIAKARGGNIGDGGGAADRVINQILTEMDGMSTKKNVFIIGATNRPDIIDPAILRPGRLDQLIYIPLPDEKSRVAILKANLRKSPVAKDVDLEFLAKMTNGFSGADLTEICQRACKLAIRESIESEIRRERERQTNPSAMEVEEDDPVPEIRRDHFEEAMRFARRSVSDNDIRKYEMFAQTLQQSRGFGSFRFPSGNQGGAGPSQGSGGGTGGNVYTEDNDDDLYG

B1: His-tagged VCIP135(1-390) (domain or fragment, rat, UniProt Q8CF97 1-390, looked up)
chain: MSQPPPPPPLPPPPPPPEAPQTSSSLAAAATPGGLSKRRDRRILSGSCPDPKCQARLFFPASGSVSIECTECGQRHEQQQLLGVEEVTDPDVVLHNLLRNALLGVTGAPKKNTELVKVMGLSNYHCKLLSPILARYGMDKQTGRAKLLRDMNQGELFDCALLGDRAFLIEPEHVNTVGYGKDRSGSLLYLHDTLEDIKRANKSQECLIPVHVDGDGHCLVHAVSRALVGRELFWHALRENLKQHFQQHLARYQALFHDFIDAAEWEDIINECDPLFVPPEGVPLGLRNIHIFGLANVLHRPIILLDSLSGMRSSGDYSATFLPGLIPAEKCTGRDGHLNKPICIAWSSSGRNHYIPLVGIKGAALPKLPMNLLPKAWGVPQDLIKKYIKL
notes: VCIP135, rat, residues 1-390
For the molecule B1, the binding result is “binds”.

B2: His-tagged VCIP135(903-1053) (domain or fragment, rat, UniProt Q8CF97 903-1053, looked up)
chain: GEDVWSYAKGLPHMFQQGGVFYNIMKKTMGMADGKHCTFPHLPGKTFVYNASEDRLELCVDAAGHFPIGPDVEDLVKEAVSQVRAEATTRSRESSPSHGLLKLGSGGVVKKKSEQLHNVTAFQGKGHSLGTASSNPHMDPRARETLAVRKH
Take B2: the binding result is given as “binds”.

B3: His-tagged VCIP135(744-1221) (domain or fragment, rat, UniProt Q8CF97 744-1221, looked up)
chain: TVSPSTIRDGPSSAPATPTKAPYSPTTSKEKKIRITTNDGRQSMVTLKSSTTFFELQESIAREFNIPPYLQCIRYGFPPKELMPPQAGMEKEPVPLQHGDRITIEILKGKAEGGPSTAAHSAHTVRQEEIAVTGKLSSKELQEQADKEMYSLCLLATLMGEDVWSYAKGLPHMFQQGGVFYNIMKKTMGMADGKHCTFPHLPGKTFVYNASEDRLELCVDAAGHFPIGPDVEDLVKEAVSQVRAEATTRSRESSPSHGLLKLGSGGVVKKKSEQLHNVTAFQGKGHSLGTASSNPHMDPRARETLAVRKHNTGTDFSNSSIKTEPPVFTAASSNSELIRIAPGVVTMRDGRQIDPDVVEAQRKKLQEMVSSIQASMDKHLRDQSTEQTPSDLSQRKVEAVSSSVRPGNLQTGLPESFSLTGGTENLNTETTDSRVADVLGAAFATRSKAQKENSMEEPEEMDSQDAETTNTTEPMDHS
notes: also called C-terminal half of VCIP135
B3: the binding result was “binds”.

B4: His-tagged VCIP135(1-743) (domain or fragment, rat, UniProt Q8CF97 1-743, looked up)
chain: MSQPPPPPPLPPPPPPPEAPQTSSSLAAAATPGGLSKRRDRRILSGSCPDPKCQARLFFPASGSVSIECTECGQRHEQQQLLGVEEVTDPDVVLHNLLRNALLGVTGAPKKNTELVKVMGLSNYHCKLLSPILARYGMDKQTGRAKLLRDMNQGELFDCALLGDRAFLIEPEHVNTVGYGKDRSGSLLYLHDTLEDIKRANKSQECLIPVHVDGDGHCLVHAVSRALVGRELFWHALRENLKQHFQQHLARYQALFHDFIDAAEWEDIINECDPLFVPPEGVPLGLRNIHIFGLANVLHRPIILLDSLSGMRSSGDYSATFLPGLIPAEKCTGRDGHLNKPICIAWSSSGRNHYIPLVGIKGAALPKLPMNLLPKAWGVPQDLIKKYIKLEEDGGCVIGGDRSLQDKYLLRLVAAMEEVFMDKHGIHPSLVADVHQYFYRRTGVIGVQPEEVTAAAKKAVMDNRLHKCLLCGALSELHVPPEWLAPGGKLYNLAKSTHGQLRPDKNYSFPLNNLVCSYDPVKDVLLPDYGLSNLTACNWCHGTSVRRVRGDGSIVYLDGDRTNSRSTGGKCGCGFKHFWEGKEYDNLPEAFPITLEWGGRVVRETVYWFQYESDPSLNSNVYDVAMKLVTKHFPGEFGSEILVQKVVHTILHQTAKKNPDDYTPVNIDGAHAQRIGDVQGQELESQLPTKIILTGQKTKTLHKEELNMSKTERTIQQNITEQASVMQKRKTEKLKQEQKGQPR
notes: also called N-terminal half of VCIP135
Take B4: the binding result is listed as “binds”.
